According to patent US10640556B2, “Anti amphiregulin antibodies, compositions comprising same and uses thereof” (Yeda Research and Development Co. Ltd., priority 2015, dated 2020):
Each block holds one molecule with its values, some of them ahead of it.

What was measured:
[1] = target: T1, EGFR (Homo sapiens, UniProt P00533); assay: Ligand-induced receptor ubiquitination assay (MCAS, MLS, H358, A549 cells); format: cell-based; parameters: endogenous in cells; host or cells: MCAS, MLS, H358, A549; details: 10 minutes
Procedure: (§1) The cells were later washed and lysed, and the associated radioactivity was determined. […] The cells were later washed and lysed in 1 N NaOH. Cell-associated radioactivity was determined. […] Washed immunocomplexes, along with whole extracts, were immunoblotted with the indicated antibodies.
For determination of ligand-induced receptor ubiquitination, cells were extracted in lysis buffer (50 mM HEPES pH 7.5, 150 mM NaCl, 10% glycerol, 1% Triton X-100, 1 mM EDTA, 1 mM EGTA, 10 mM NaF and 30 mM 3-glycerol phosphate) with freshly added 0.2 mM Na3VO4, a protease inhibitor cocktail and 2 mM N-ethylmaleimide (NEM). Twenty μL of protein G agarose beads and 1 μg of antibody were added to 500 μg of protein lysate. After a 2 hour incubation at 4° C., the immunoprecipitates were collected by centrifugation at 14,000 rpm at 4° C. for 1 minute. The supernatant was discarded and the pellet was washed thrice, prior to electrophoresis.

[2] = target: T1, EGFR; assay: Receptor downregulation assay in MCF10A cells; format: cell-based; parameters: endogenous in cells; details: AREG 1 ng/mL or 100 ng/mL
Procedure: FIGS. 2G-2H illustrate that AREG is a low affinity ligand able to induce only limited receptor downregulation in normal epithelial cells. FIG. 2G is a graph illustrating results of the immortalized human mammary cell line MCF10A used for ligand displacement assays. […] The cells were later washed and lysed, and the associated radioactivity was determined. The extent of ligand displacement (mean±range of triplicates) is depicted; and FIG. 2H is a graph illustrating results of MCF10A cells grown in 12 well plates and starved overnight for serum factors. […] The cells were later washed, lysed in 1N NaOH and their radioactivity was determined. Averages of triplicates and S.D. values (bars) are presented.
(§2) At the end of the incubation period, the cells were placed on ice, washed with ice cold medium and subjected to mild acid wash (0.2 M Na-acetate buffer, pH 4.5, and 0.5 M NaCl) for 2 minutes, followed by 2 washes in ice cold medium. […] Finally, cells were lysed in 1 N NaOH, and their radioactivity was determined.

[3] = target: T1, EGFR; assay: Ligand displacement of radiolabeled EGF on MCAS cells; format: binding; parameters: endogenous in cells; host or cells: MCAS, MLS, H358, A549; details: displacement of 125I-EGF (50 ng/mL), 3 hours on ice
Procedure: FIGS. 2A-2F illustrate that AREG is a low affinity ligand that induces limited receptor downregulation, as well as weak ubiquitination and degradation of EGFR. […] The cells were later washed and lysed, and the associated radioactivity was determined. The extent of ligand displacement (mean±range of triplicates) was plotted with respect to binding in the absence of an unlabeled ligand; FIG. 2B is a graph showing results of MCAS ovarian cells incubated in a 12 well plate and starved overnight for serum factors. […] The cells were later washed and lysed in 1 N NaOH. Cell-associated radioactivity was determined. […] Washed immunocomplexes, along with whole extracts, were immunoblotted with the indicated antibodies.
For ligand displacement assays, cells were grown in 12-well plates and serum-starved for 12-15 hours. […] The cells were later washed, lysed and their radioactivity counted.

[4] = target: T1, EGFR; assay: Receptor downregulation assay in MCAS cells; format: cell-based; parameters: endogenous in cells; host or cells: MCAS, MLS, H358, A549; details: ligand 50 ng/ml
Procedure: as §1, §2

[5] = system: feedback regulatory components of the EGFR signaling pathways; assay: qPCR of feedback regulators of EGFR signaling in MCF10A cells; format: cell-based, human
Procedure: FIGS. 3A-3F illustrate that amphiregulin acts as a weak inducer of transcription-mediated feedback regulatory loops of EGFR signaling. […] Shown are mRNA profiles representative of two independent biological repeats.
Total RNA was extracted using the PerfectPure RNA Cultured Cell Kit (5-prime) according to the manufacturer's instructions. Total RNA quantity and quality were determined using the NanoDrop® ND-1000 Spectrophotometer. Complementary DNA was synthesized using the High Capacity Reverse Transcription kit (Applied Biosystems, Life Technologies). Primers for the positive (EREG, TGF-alpha and HB-EGF), negative regulators (MIG6/RALT, DUSP1 and DUSP6) and beta2-microglobulin (B2M) were as previously described (Lauriola M et al., (2014) Nat Commun. 5: 5073). The KiCqStart primers from Sigma-Aldrich were used to detect the levels of human AREG (H_AREG_3). Real-time qPCR analysis was performed with SYBR Green (Applied Biosystems) and specific primers on the StepOne Plus Real-Time PCR system (Applied Biosystems). qPCR signals (cT) were normalized to B2M.

[6] = target: T2, murine AREG (Mus musculus, UniProt P31955); assay: ELISA on plates coated with murine AREG; format: binding
T2 construct: purchased Peprotech
T2 sequence (P31955 94-191 limits assumed): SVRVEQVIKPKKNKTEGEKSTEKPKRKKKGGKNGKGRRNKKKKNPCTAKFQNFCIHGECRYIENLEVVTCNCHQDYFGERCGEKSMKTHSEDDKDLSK
Procedure: FIG. 9A—96 well plates were coated with the indicated ligands (400 ng/mL), including a murine HB-EGF fused to thioredoxin. Plates were incubated for 2 hours with 3 different mAbs specific to AREG (as indicated). Thereafter, wells were incubated for two hours with an anti-mouse antibody conjugated to HRP, followed by a 30 minute incubation with ATBS. Signals were determined using an ELISA reader (set at 415 nm). […] Thereafter, wells were incubated for two hours with an anti-mouse antibody conjugated to HRP, followed by a 30-min incubation with ATBS. Signals were determined using an ELISA reader (set at 415 nm). […] 96-well plates were coated with decreasing concentrations (400, 200, 100, 50, 25 and 10 ng/mL) of the indicated 3 ligands, and then incubated for 2 hours with three different mAbs specific to AREG (AR30, AR37 and AR558) at […]. Thereafter, wells were incubated for two hours with an anti-mouse antibody conjugated to HRP, followed by a 20-min incubation with ATBS. Signals were determined using an ELISA reader (set at 420 nm).

[7] = system: EGFR; assay: AREG-induced EGFR phosphorylation in HeLa cells (immunoblot); format: cell-based, human; details: AREG 100 ng/ml, mAb 0.1-50 μg/ml, FIG. 10A
Procedure: FIGS. 6A-6F illustrate AR30, an anti-AREG monoclonal antibody, that inhibits auto-phosphorylation of EGFR. FIG. 6A is a photograph of a Coomassie blue staining of an acrylamide gel showing a purified fraction of AREG isolated from bacteria and purified on a NiNTA column. The molecular weight marker lane indicates a 15 kilodalton band; FIG. 6B, cells were seeded in a 24 well plate, washed and incubated with increasing concentrations of the purified TRX-AREG fusion protein (8.5, 85, 850, 8500 ng/ml). […] Following a 10-min long incubation, the cells were lysed and cleared extracts immunoblotted (IB) with an anti-phosphotyrosine antibody (PY-99); FIG. 6C, 96 well plates were coated with the indicated ligands (0.1 μg/ml), and then incubated for 3 hours with three different mAbs specific to AREG. Thereafter, wells were incubated for two hours with an anti-mouse antibody conjugated to HRP, followed by a 30 minutes incubation with ATBS. […] Serum from non-immunized mice was used as a negative control; FIG. 6E, HeLa cells were pre-incubated with (or without) mAb AR30 (20 μg/mL) and increasing concentrations of AREG. Thereafter, whole cell lysates were immunoblotted (IB) using an antibody specific to the phosphorylated form of EGFR (tyrosine 1068) or an antibody to EGFR; and FIG. 6F, HeLa cells were incubated with (or without) AREG (100 ng/mL) in the presence of increasing concentrations of mAb AR30 (5, 10, 20 and 50 μg/mL). Thereafter, cells were lysed and cleared extracts immunoblotted (IB) using the indicated antibodies.
FIG. 10A illustrates that anti-AREG mAbs inhibit ligand-induced activation of EGFR. HeLa cells were incubated with (or without) AREG (100 ng/ml) in the presence of increasing concentrations of mAb AR30, mAb AR 37 or mAb AR558 (0.1, 0.2, 0.5, 0.75, 1.5, 3.5, 6.25, 12.5, 25 and 50 μg/ml). Thereafter, cells were lysed and cleared extracts immunoblotted (IB) using the indicated antibodies, including an antibody specific to the phosphorylated (active) for of EGFR (pEGFR).

[8] = system: MCF10A cells; assay: MTS proliferation assay of MCF10A cells; format: cell-based, human; details: 72 h, absence or presence of AREG, relatively high mAb concentrations
Procedure: Proliferation assays using MTS were performed on MCF10A cells (1,000 cells per well). C ells were plated on the day before and treated for 72 h with the indicated mAbs (1, 5, 10, 20 or 50 ug/mL). Increasing concentrations of the indicated mAbs (either alone or in combination with AREG) were used in medium supplemented with 1% serum and AREG (either at 10 or 100 ng/mL).

[9] = system: Cal-27 human head and neck cancer cells; assay: Cal-27 head and neck tumor xenograft in nude mice; format: in vivo; details: Cal-27 tumors, 300 μg per injection intraperitoneally twice a week
Procedure: Female nude mice were inoculated subcutaneously with Cal-27 human head and neck cancer cells (2×10^6). Once tumors became palpable (5-7 days) mice were randomized and intraperitoneally injected with saline (Control), or with anti-AR mAbs: AR30, AR37 or AR558 (each at 300 μg per injection). Mice were treated with mAbs twice a week and tumor volume was followed. Shown are averages and SD values from at least 5 mice per group.
To test the ability of anti-AREG antibodies to reduce growth of human tumor cells implanted in immunocompromised mice, Cal 27 tumor cells were used which were inoculated subcutaneously and randomized for treatment after tumors became palpable. […] Furthermore, studies testing pairs of two mAbs illustrate their enhanced anti-tumor activities (data not shown), this can be attributed to the fact that the mAbs bind to distinct antigenic determinants of amphiregulin.

[10] = target: T3, human AREG (Homo sapiens, UniProt P15514); assay: Antigenic determinant comparison of anti-AREG mAbs; format: binding; details: data not shown
T3 sequence (P15514 101-198 limits assumed): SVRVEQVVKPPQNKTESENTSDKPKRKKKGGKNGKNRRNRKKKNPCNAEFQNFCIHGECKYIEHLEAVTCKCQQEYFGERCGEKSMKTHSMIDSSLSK

- ubiquitination of EGFR ([1]; ligand 100 ng/mL, MCAS, MLS, H358, A549 cells): failed to do so
- lower binding affinity compared to EGF [3]: approximately 100 fold
- EGFR downregulation [4]: approximately 30%
Molecule: AREG: amphiregulin, low-affinity EGF-family ligand of EGFR
- ubiquitination of EGFR ([1]; ten-fold higher concentration (1 μg/mL)): comparable levels of receptor ubiquitination as EGF and TGF-alpha
- EGFR downregulation [2]: effective downregulation of EGFR was observed only when testing very high concentrations
- induction of feedback regulator transcripts (qPCR) ([5]; ligand 10 ng/ml): hardly detectable signals
- induction of feedback regulator transcripts (qPCR) ([5]; ligand 100 ng/ml): clear, time dependent transcription of the six tested genes

- recognition of murine AREG (ELISA) ([6]; ligand coated at 400-10 ng/mL, FIG. 9C): recognised the murine molecule
B1: AR37: anti-AREG monoclonal antibody from AREG knockout mice; heavy chain SEQ ID NO: 62, light chain SEQ ID NO: 93 (antibody)
heavy: EVQLVESGGDLVKPGGSLKLSCAASGFTFSNSGMXWFRLTPDKRLEWVATISSGSTYTFYPDTVKGRFIISRXNAKNTLYLQMSSLKSEDTAIYYCVREIWPVWGAGTTITVSSAKT
light: QAVVTQESALSTSPGETVTLTCRSSTGAVTTSNYANWVQEKPDHLFTGLLGDTDNRPPGVPARFSGSLLGDKAALTITGAQTEDEAIYFCALWYSNHWVFGGGTKLTVL
modifications: not fully specified; AR37 heavy chain IgG complete amino acids coding sequence; (35)..(35) Xaa can be any naturally occurring amino acid; (73)..(73) Xaa can be any naturally occurring amino acid; AR37 light chain (IgG) complete amino acids coding sequence
- recognition of murine AREG (ELISA) ([6]; ligand coated at 400 ng/mL, FIG. 9A): recognized the murine molecule better than the other two mAbs tested
- AREG-induced phosphorylation of EGFR [7]: low concentrations of the antibodies were sufficient for blocking
- inhibition of proliferation [8]: Moderate inhibition
- tumor growth [9]: comparably inhibit tumor growth
- antigenic determinant targeted [10]: engages a different determinant of human AREG
